Measurements from patent US20170174776A1 (Hoffmann-La Roche, published 2017).

What was measured:
[1] = target: T1, extracellular domain of the mouse transferrin receptor (mouse, UniProt Q62351 89-763); assay: ELISA, coated mouse TfR ECD, pH 5.5 against pH 7.4
T1 construct: extracellular domain; Bought, SinoBiological #50741-M07H; also called mouse TfR

[2] = target: T1, extracellular domain of the mouse …; assay: ELISA, coated mouse TfR ECD, pH 5.5
[3] = target: T1, extracellular domain of the mouse …; assay: ELISA, coated mouse TfR ECD, pH 7.4
[4] = target: T2, fusion protein of the human transferrin receptor extracellular domain linked to human IgG1 Fc (human, UniProt P02786 89-760); assay: ELISA, coated human TfR ECD-Fc, pH 7.4
T2 construct: extracellular domain; Bought, R&D Systems #2474-TR-050; also called human TfR; not shown: human IgG1 Fc
T2 sequence (P02786 89-760): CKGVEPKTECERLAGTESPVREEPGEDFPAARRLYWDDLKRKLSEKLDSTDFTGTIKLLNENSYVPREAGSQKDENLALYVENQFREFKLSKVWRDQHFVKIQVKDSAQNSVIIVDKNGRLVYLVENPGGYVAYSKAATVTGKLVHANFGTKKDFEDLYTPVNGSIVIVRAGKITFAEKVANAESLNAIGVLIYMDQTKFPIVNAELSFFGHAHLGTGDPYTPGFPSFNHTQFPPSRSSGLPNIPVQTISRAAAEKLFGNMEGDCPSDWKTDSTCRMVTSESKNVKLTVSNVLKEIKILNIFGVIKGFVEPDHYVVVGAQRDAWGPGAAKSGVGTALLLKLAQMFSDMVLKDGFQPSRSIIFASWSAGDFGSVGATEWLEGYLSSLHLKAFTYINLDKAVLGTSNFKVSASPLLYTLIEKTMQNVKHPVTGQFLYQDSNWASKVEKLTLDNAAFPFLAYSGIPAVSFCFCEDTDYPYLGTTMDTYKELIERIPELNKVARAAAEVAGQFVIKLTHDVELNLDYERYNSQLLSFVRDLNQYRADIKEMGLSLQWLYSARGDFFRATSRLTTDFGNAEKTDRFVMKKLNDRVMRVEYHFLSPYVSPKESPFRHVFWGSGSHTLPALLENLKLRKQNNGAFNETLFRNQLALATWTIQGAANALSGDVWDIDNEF
Description: (§1) A fusion protein of the human transferrin receptor extracellular domain linked to human IgG1 Fc (R&D Systems, Wiesbaden, Germany, #2474-TR-050) or the extracellular domain of the mouse transferrin receptor (SinoBiological, Beijing, China, #50741-M07H) or of the human insulin receptor (R&D Systems, Wiesbaden, Germany, #1544-IR/CF) were coated to a 96-well plate by incubating 50 μl of a solution of 1 μg/ml in PBS for 1 h at RT. […] After four further washes with PBS/0.1% (w/v) TWEEN 20, bound antibodies were detected using HRP-coupled secondary antibodies (Dianova, Hamburg, Germany, #109-036-097 or GE Healthcare, Freiburg, Germany, #NA9310V)(30 min., RT) and 50 μl of TMB (10 min., RT) substrate. Color development was stopped by addition of 50 μl of 1 N hydrochloric acid (HCl) and absorbance measured at 450 nm in a plate reader.

[5] = target: T2, fusion protein of the human transferrin …; assay: ELISA, coated human TfR ECD-Fc, pH 5.5 against pH 7.4
Description: as §1

[6] = target: T2, fusion protein of the human transferrin …; assay: ELISA, coated human TfR ECD-Fc, pH 5.5
Description: as §1

T1 sequence (Q62351 89-763): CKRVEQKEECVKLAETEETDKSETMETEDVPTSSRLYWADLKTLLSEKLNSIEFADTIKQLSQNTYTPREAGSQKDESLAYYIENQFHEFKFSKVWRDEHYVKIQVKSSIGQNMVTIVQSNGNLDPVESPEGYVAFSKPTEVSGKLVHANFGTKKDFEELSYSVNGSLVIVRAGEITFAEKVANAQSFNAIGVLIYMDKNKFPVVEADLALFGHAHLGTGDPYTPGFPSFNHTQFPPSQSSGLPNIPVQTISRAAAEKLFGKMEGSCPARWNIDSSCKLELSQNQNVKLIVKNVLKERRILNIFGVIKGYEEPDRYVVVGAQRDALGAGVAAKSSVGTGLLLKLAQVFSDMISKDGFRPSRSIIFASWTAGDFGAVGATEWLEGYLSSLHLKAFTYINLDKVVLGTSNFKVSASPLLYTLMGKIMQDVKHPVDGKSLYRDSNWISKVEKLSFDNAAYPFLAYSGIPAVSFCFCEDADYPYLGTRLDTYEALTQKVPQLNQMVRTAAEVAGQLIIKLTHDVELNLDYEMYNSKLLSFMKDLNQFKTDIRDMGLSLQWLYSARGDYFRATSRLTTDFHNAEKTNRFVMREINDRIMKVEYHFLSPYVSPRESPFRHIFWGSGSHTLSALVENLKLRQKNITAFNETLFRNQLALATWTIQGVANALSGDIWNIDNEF

| ratio EC50 pH 5.5/EC50 pH 7.4 [1] | EC50 [2] [µg/mL] | EC50 [3] [µg/mL] | EC50 [4] [µg/mL] | ratio EC50 pH 5.5/EC50 pH 7.4 [5] | EC50 [6] [µg/mL] | Binder |
| --- | --- | --- | --- | --- | --- | --- |
| 1.1 | 0.0549 | 0.0511 | – | – | – | mAb 8D3 (rat anti-mouse transferrin-receptor antibody 8D3 variable regions with human IgG1 heavy and light chain constant regions) (antibody, V domains shown) VH: EVQLVESGGGLVQPGNSLTLSCVASGFTFSNYGMHWIRQAPKKGLEWIAMIYYDSSKMNYADTVKGRFTISRDNSKNTLYLEMNSLRSEDTAMYYCAVPTSHYVVDVWGQGVSVTVSS VL: DIQMTQSPASLSASLEEIVTITCQASQDIGNWLAWYQQKPGKSPQLLIYGATSLADGVPSRFSGSRSGTQFSLKISRVQVEDIGIYYCLQAYNTPWTFGGGTKLELK |
| – | – | – | 0.0078 | 1.3 | 0.0098 | mAb 128.1 (mouse anti-human transferrin-receptor antibody 128.1 variable regions with human IgG1 heavy and light chain constant regions) (antibody, V domains shown) VH: EVQLQQSGPELVKPGASMKISCKASGYSFTGYTMNWVKQSHGENLEWIGRINPHNGGTDYNQKFKDKAPLTVDKSSNTAYMELLSLTSEDSAVYYCARGYYYYSLDYWGQGTSVTVSS VL: QIVLTQSPAIMSASPGEKVTMTCSASSSIDYIHWYQQKSGTSPKRWIYDTSKLASGVPARFSGSGSGTSYSLTISSMEPEDAATYYCHQRNSYPWTFGGGTRLEIR |
